# Columns and labels:
# [1] = test system: T1, XssQ (Synechocystis sp. PCC 6803), ORF:81bb7109; assay: EMSA; conditions: 30 min at room temperature, buffer, salt and pH not given (refers to Hirose 2010, Maeda 2014, Midorikawa 2009)
# T1 sequence: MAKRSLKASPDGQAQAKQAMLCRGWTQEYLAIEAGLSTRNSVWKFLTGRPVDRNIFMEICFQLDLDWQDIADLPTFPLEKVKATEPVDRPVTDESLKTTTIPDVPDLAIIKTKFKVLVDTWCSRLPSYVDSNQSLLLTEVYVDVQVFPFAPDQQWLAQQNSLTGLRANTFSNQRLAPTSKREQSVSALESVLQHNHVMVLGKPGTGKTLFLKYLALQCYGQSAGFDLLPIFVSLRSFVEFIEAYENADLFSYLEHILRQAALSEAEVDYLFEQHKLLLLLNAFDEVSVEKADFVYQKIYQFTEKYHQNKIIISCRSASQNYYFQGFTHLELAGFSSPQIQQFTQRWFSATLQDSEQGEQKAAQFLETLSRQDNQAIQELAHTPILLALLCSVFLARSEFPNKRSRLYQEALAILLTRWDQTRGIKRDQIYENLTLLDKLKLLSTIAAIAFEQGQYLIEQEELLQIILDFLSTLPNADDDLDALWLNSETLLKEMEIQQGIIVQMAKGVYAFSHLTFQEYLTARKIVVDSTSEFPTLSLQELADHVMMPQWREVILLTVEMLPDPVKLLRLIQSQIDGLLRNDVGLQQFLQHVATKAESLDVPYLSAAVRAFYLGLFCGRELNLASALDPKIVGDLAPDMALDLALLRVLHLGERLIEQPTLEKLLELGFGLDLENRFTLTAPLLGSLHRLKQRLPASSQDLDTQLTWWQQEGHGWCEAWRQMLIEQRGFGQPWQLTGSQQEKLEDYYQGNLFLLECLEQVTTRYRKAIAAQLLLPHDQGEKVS
# [2] = test system: T1, XssQ (Synechocystis sp. PCC 6803), ORF:81bb7109; assay: competition; conditions: EMSA, 30 min at room temperature; buffer, salt and pH not given (refers to Hirose 2010, Maeda 2014, Midorikawa 2009)
sequence,measurement,setting,value
ATCTTTAAAGCCCCAGTCCCGATCGCCAGCGGTTAAACAGGTAAAAAAACAGAAGCAGAAATCTAGTGAGCAGGGGAAACTCAAAACCAAGCCGGGGCGCTCAAAGTCAGGGTCAGGCAAAAGGTCTAAAGTTAGACGCAAAGTTGTACATAGGGCAGGCACGAAATCAGACAGCGATCCATCAAGCTAAGAACAGGTTGCAATTGCCCATCTCACGATCGCCGTCACGCCCCCATGAACACTTCTTTCCT (double strand) [xssE upstream probe / native competitor],binding,[1],binds
same,binding,[2],binds

# Source: article PMC8205485
